The data set is described as follows: soluble on expression in E. coli; label from the status in PepcDB or PDB records.
With “SASVEGDDDFGSSSSRSYQDQLYTELWKVCAGPLVEVPRAQERVFYFPQGHMEQLVASTNQGINSEEIPVFDLPPKILCRVLDVTLKAEHETDEVYAQITLQPEEDQSEPTSLDPPIVGPTKQEFHSFVKILTASDTSTHGGFSVLRKHATECLPSLDMTQATPTQELVTRDLHGFEWRFKHIFRGQPRRHLLTTGWSTFVSSKRLVAGDAFVFLRGENGDLRVGVRRLARHQSTMPTSVISSQSMHLGVLATASHAVRTTTIFVVFYKPRISQFIVGVNKYMEAIKHGFSLGTRFRMRFEGEESPERIFTGTIVGSGDLSSQWPASKWRSLQVQWDEPTTVQRPDKVSPWEIEPFLATSPISTPAQQPQSKCKRSRPIEPSVKTPAPPSFLYSLPQSQDSINASLKLFQDPSLERISGGYSSNNSFKPETPPPPTNCSYRLFGFDLTSNSPAPIPQDKQPMDTCGAAKCQEPITPTSMSEQKKQQTSRSRTKVQMQGIAVGRAVDLTLLKSYDELIDELEEMFEIQGQLLARDKWIVVFTDDEGDMMLAGDDPWNEFCKMAKKIFIYSSDEVKKMTTKLKISSSLENEEYGNESFENRSRG”, the “soluble on expression in E. coli” value is listed as “not soluble”.
Consider “MGSDKIHHHHHHVATYNERLFDGKSFRSKLHYARYLWVNSWIKRWELPSYSMLELGCYDGKTIDFLSNKPATYAGYDANWEGGLDIAKTKWSMHPDYSFHTCEKPADFSADDSMYEVSVCLETLEHIPAADLEAYIVQLSKKTKQYCLVSVPNEKGPVLFFKHIIKSITQEKAQTEAYTLKEFLYGSIGRLDKVARRDCGHKGFDYDALAVLLKKYFTILKTEAIPYPAIPHALGFNVGFILKKN”, for which the “soluble on expression in E. coli” value is “not soluble”.
Then “MAVSATGFEGFEKRLEISFFETTDFLDPQGKSLRSLTKSQLDEILTPAECTIVSSLTNSFVDSYVLSESSLFVYPYKIIIKTCGTTKLLLSIPHILRLADSLCLTVKSVRYTRGSFIFPGAQSYPHRSFSEEVALLDDYFGKLNAGSKAFVMGGSDNNPQRWHVYSASSTEESAVCDKPVYTLEMCMTGLDNIKASVFFKTNSVSASEMTISSGIRNILPGSEICDFNFEPCGYSMNSIEGDAVSTIHVTPEDGFSYASFETVGYDLKALNFKELVDRVLVCFGPEEFSVAVHANLGTEVLASDCVADVNGYFSQERELEELGLGGSVLYQRFVKTVECCSPKSTLGFC”, with “not soluble”; and “MSLKRIAIILLTLTSILFVQHVPEGLAKASNELSLEEKYEQRLTLYEKMEAITNVPWYYLAAVDTYERGLRRAQKDRPAEEGLIAIYFSPQQWVGPLNPDLEDTNPLSISMFNGVGLDGNGDGVADRNNDEDVLYTFARYLESYGFKEEDFRIALWEYYQREQSVNIIYGHANVYKTFKTLDLDDHTFPLPLHHNYSYRSTWGDRRGWGGRRIHEGTDIFANYNVPVMATAYGIVEIKGWNKYGGWRIGVRDLDNVYHYYAHLSGFEKGVEKGTVVAPGDVIGYVGSSGYGKPGTQGKFPPHLHYGMYRDNGYTEWSFDPYPSLKSWERKAYQERKKKKEGHHHHHH”, with “soluble”; and “MGSDKIHHHHHHMECVFGIDVSKENANVAVLVDNVVIKQFKIGLDRLGFSLLSDELNSFNAPLIIYEATAMYSRRLRAFLQRDGWKYTELNPLAAKKVMEEFRHTKTDALDAVGLARAMIKNHFRPTYQESPVYTELHDLERTYQQFNKDIVTNKNRLHRALQLTFPEIEHFMSSTDGVLYWHIVQRFPHPAIVLSHEENELTEIILTETSKKIGLKRAMKLANRLLALAQNSAPAKEPQSHAVRAVIALAKEVERINQLKAQIIVEMTTLGENLSEVPLLVSIPGIGIKTALCLIAELGDVRRFHSANAINAYIGIDLIRYESGQYEAKMHIRKRGNPYVRKILYRAILNIISVSQYQPTLISANYKRKKQSAQSHGTKKIAIAAMSQFNRLMHHLILNNELYDSTTFMPE”, with “not soluble”.
For the sequence “MTAENLSLSPELLDAVRRISGTEHLLVALDFDGTLSPIVDRAEDARPLPRSAAALEALAQLPRTTTALISGRALDSLRLVASPPADTLLIGSHGAEVWLGEGSLGLELDEDQRLKLAAVREVLSEIVNIAPGTLLEDKPAGVVLHTRMADDDVADDAVEAAMRVLREHPGVYLKTGKRVLETSVVHASKGQAVEFLRQATGATAILFAGDDVTDEDALGRLMGDDVGIKVGLDFTQAQYRVEAPVHVAELLEALLRERRRVTTDA”, the “soluble on expression in E. coli” value is reported as “soluble”.
With “MSSVELPQVMDDNLISRRKKIMQSIEDIRGKKAEIAQALRELGVGKPQENESVKEDMKLLLAAFDSISAQEAQYMDILKTIVGIHEQATLDIAKDFEKKIEDDAQKLKEQKEKQEEDATEEDENAEKTPEEQANSEVIAELQEALLELKQVSEAAVAASELNEKLVERLQLTKRKKSAMMEVRAKKAKDLDDVATKVRAEVMERINKMAALKKTTTKQEKELKELQKQCLQLGLQLGTDENREIDPAAEEALLDDNQRVPVIVETQEKPDLNDEEKEKRREEIRENIKKEMEKKEQVNTLIREKLASMNARRKRLQEIRKMLEKQEHEKEKLDAAISNSAVAVQNDGEGIALTPETPRPSQEDEAEAPAAAETTVVSAPVAASEDIDEEEDGEVTEKSLDDILENARANLSNLTAMRERLEHIKETGGADLNEDDLTLLERLDNVALEEDEKLTPTP” the entry was “soluble”.
Take “MALPVTSSANQPTGTNNVAATKCKGCFCPGNPCQLCRLPPHTDDPIPENEPETCRLIREAVPPASFQPGENEYFANLDKATIQCIRSGDVIPNTRRVPGYPGRVYCKPGLPALGAH”: the “soluble on expression in E. coli” value is “not soluble”.
With “YAEIRARLYLMTGQTNKALNELRRLCNRFPEVNEFRLKYAGTLLDSEKYDEAYEQLQLIARTDSTSGLYHFAMASYYLGTNEKEAAINEMIKVAADKDVAPEQKLPIILRFIGTDTDEEDAPKKEYNILLEKILASHPTEVDARLFYAELLEMQGDSIHAMEVCRPITEFAPKEERAWKFMLGRAVTGQNHTEVHRISEQARQYLPGVPLFYLYDAISYYIEKKGSEAKHILQEALEHIDAEKDPNGLSDIYSQLGDLAYEENKPEEAFANYEKALELNPRNVGVLNNYAYFLAKEGGDLAKAERMAAQCVKLLPDNAVSLDTYGWVFFLRENYTLAKLYIEKALGLAADNPDADVVEHHGDVLYMLGEKEKAMLEWKRAKEIGGGGSPMLDKKIEQGKYIPEKKK” the entry was “not soluble”.
Then “MKIAGLKQLNTALKEAASGGFSRQASRWLEECGQDFLEIVQSELISTQTIDTEKLLSSFEKGAEDNLWIVQSGGLSLEVGTQLDYASFLNDGHWTSKQDVRWVPGRFQGSRFIYDPAASTGMALKRKWIPGTGYWDHALLLYEQLFEKSLESKLRQWLKKL”, with “not soluble”.
For “MNADEWMTTFRENIAQTWQQPEHYDLYIPAITWHARFAYDKEKTDRYNERPWGGGFGLSRWDEKGNWHGLYAMAFKDSWNKWEPIAGYGWESTWRPLADENFHLGLGFTAGVTARDNWNYIPLPVLLPLASVGYGPVTFQMTYIPGTYNNGNVYFAWMRFQFL”, the “soluble on expression in E. coli” value is reported as “soluble”.
With “MPNIDNVFSIYAGQLELLRQNGLIERTGEYICPICLNSFNKEQLNKLSMEDAPQASLGGKKIAITCKKCNNTCGHETDIHLVNFITYLEEQEFLPGSNRRVKIFDDETTINANLEVGNTKELKMIIPNKINNPKALTNHLSKLTVGGIIDIQNHPLKIDMKKVSTAILKNAYIILFARFGYSFLLNSFYDRIREQILNPAKHIIPESLWTKQTSISVKDGIYFSNSNVYRGFFIIYSLTKLRTHHFCICIPTPQVYFEAIAYYFREYKAGIPIYMMGSDGIDYFQNIDNIKALNKWLVNWSLGSPV” the entry was “not soluble”; with “MGYEGIIVVDVRDAEAYKECHIPTAISIPGNKINEDTTKRLSKEKVIITYCWGPACNGATKAAAKFAQLGFRVKELIGGIEYWRKENGEVEGTLGAKADLFWNMKKESLEHHHHHH”, “not soluble”.
With “KEMKYVVDTSVVISGRVTEMLESGEIKGTIIVPEAVMAELEAQANFGKMTGFQGLSEIEKLTKLAKDKGFEVIFAGERPKLEHIRLAKGGEIDNLIREVAAEFDAVLVTSDRVQHLVARAKGIETIYVRPRVVRPENTRIMSFFTP” the entry was “not soluble”; with “MPPPSPLHLDPIEEAHRQWTKHGWGDVADGMAAVTSVMRAQQIMMARVEEVLKPSGLTFARYELLTLLTFTRTGALPMAKASARLQVHPTSVTNAVDRLETANLVRRVPHPSDRRATLIEITDAGRKLAVESTERLNAQVFSRPGVSGDKLEQLVTILAELRREAGDFDTGDAPTKW”, “not soluble”.
With “MGSDKIHHHHHHMDNPFARFAGTRTIQANLSLLEENYVPDSFPHRENQINEMVTILSSIMRGSRPSNIIVYGKTGTGKTSTTKYVTKMLVEAASNVSVVYVNCEIYDSPYSILVAIANSAGEEKIPELGWPIDRIYRETVERVEKTGKFFIIILDEMDRLIKKNGGDSLYVLLKLMTDVDSVRVSMIGITNDTTVLENIDARIKSRLNQESIVFPPYNASEIRDIISSRLDKVLGPGVVDDTAINLCAAIGAQEHGDARKAIDLMRIAIEIAIRENRNKITENEIYEARERYEMNVLREAISTLPLHSKIVLLSAVVTQEIEPNSVITGEIYENYRRICDDLGFSPLSPRRISDLLTELADYGLLVMDDRNMGKYGRTRSFSVVHQAETIKKYLLEDENLSMFKSSKMPKQTRFDT” the entry was “not soluble”; with “MGSDKIHHHHHHVRFCCHHDWLYGVLHLPQQPVTRGVLIVVGGPQYRVGSHRQFVLLARYLAERGIAVMRFDFRGMGDSDGEIRTFEHVGEDLRSAADFFFSECPFLEDIVIWGLCDAASAALFHAHQDSRVSGLVLLNPWVRTEQGIAKAYLKHYYLERLFDPEFWKKLLGGKFNPLASIRSLYEFGRNSLRGGKSPAVSEKSAGSACDLTVPLPERMLDGLKRFQGKILIITSGNDLTAREFLDLVDSSADWQATLRTKQTELCHMESANHTFSTREWRDQVTELTANRVLSW”, “not soluble”.
As for “MSLEKLMALYNISSPSGKEGKIAGFIIGELRRMGIPFRQDRYGNIYAVKGNRESYPCVVAHMDEVHRRKTGSYAAHLVADSMIVGYDHKRKRMTGIGADDKNGIWICLKCLEDFKAVKCAFFVQEEIGCIGSGHADMSFFSDCRFVIQCDRKGNGDMVTQINGMRLCSNEFISAVDPRKYGYKPAQGLATDVAALKRNGLEVSCVNLSCGYYEPHTDNEYTVLADLCKCYRFVRHIICCHKEGHHHHHH”, the “soluble on expression in E. coli” value was “soluble”.
Then “ASSNANQAITSENSIKPKGKLQPQMEKYTLTYFNGRGRAEVIRLLFALANVSYEDNRITRDEWKYLKPRTPFGHVPMLNVSGNVLGESHAIELLLGGRFGLLGTNDWEEAKIMAVVLNIDELFQKLIPWTHEKNTTKKAELFRNLSESDVMPFLGRYEKFLKESTTGHIVGNKVSVADLTVFNMLMTLDDEVKLEEYPQLASFVNKIGQMPGIKEWIKKRPKTYF”, with “soluble”.
Then “RDDSTLVIGHNTGALAHRINDPQHAGSIVTAIKQETDLDVTIECVVGTDPKAAGFSEPENKKVWNPEPKPEPKPEPKPEPKPEPEPAPASDNVWGAPAPLGGGQPATPPPPPVERFSPAKATAPQPPAAPQPVQEAPKPRWQQAAERGMRKMEERAKRPSFSDGVPLPPEPEEPDVPPDLYGYPADEGIPEPQTPQATSNYVVDHDEEEEMVREAAQGVGNRDHRDAMTVAVDILSEELGARQL”, with “not soluble”.

The values are drawn from the DeepSol protein solubility set.
